Consider 15 molecules from patent publication US20150344570A1 (published 2015).

Test [1] concerns the target T1, FcγRIIb extracellular domain with C-terminal His tag (human, UniProt P31994 43-217).
T1 construct: extracellular domain; expressed in FreeStyle293 cells; analyte in Biacore; also called FcgRIIb; 2b
T1 sequence (looked up): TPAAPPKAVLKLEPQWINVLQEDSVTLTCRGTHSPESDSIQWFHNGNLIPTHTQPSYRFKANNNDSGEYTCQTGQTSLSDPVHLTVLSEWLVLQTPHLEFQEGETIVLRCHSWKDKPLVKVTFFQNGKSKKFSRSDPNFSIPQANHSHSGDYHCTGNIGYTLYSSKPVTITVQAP
The experiment in a line: SPR (Biacore), captured antibody, FcγR as analyte; relative binding. A general note: In SPR one partner is held on a chip, and binding of the other changes the refractive index at the surface.

Test [2] concerns the target T2, FcγRIa extracellular domain with C-terminal His tag (human, UniProt P12314 16-292).
T2 construct: extracellular domain; expressed in FreeStyle293 cells; analyte in Biacore; also called FcgRI; 1a
The test is described as above.
T2 sequence (P12314 16-292): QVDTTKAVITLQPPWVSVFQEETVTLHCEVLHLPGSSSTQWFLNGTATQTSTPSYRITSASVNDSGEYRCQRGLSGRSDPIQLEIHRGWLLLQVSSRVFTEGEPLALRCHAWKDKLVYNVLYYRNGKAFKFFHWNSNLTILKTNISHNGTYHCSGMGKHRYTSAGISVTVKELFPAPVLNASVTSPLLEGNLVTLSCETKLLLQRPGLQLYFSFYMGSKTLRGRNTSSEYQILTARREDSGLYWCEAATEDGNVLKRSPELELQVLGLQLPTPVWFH

The target of test [3] is T2, FcγRIa extracellular domain with …. As to the kind of experiment: SPR (Biacore); He/Con_1a divided by He/Con_2b (FcγRIIb as reference).
Test [4] has as its target T3, FcγRIa extracellular domain with C-terminal His tag (human, UniProt P12314 16-292).
T3 construct: extracellular domain; soluble analyte in Biacore; also called FcgRI; not shown: His tag at the C terminus
As to the kind of experiment: SPR; He/Con_1a divided by He/Con_2b (FcγRIa against FcγRIIb). As to the method: The heterodimerized antibodies He Abs in which one of the H chains was introduced with an alteration were assayed for their binding activities to each activating FcγR and inhibitory FcγR according to the method described in Example 4. […] The activating FcγRs in FIGS. 26, 27, 28, and 29 are FcγRIa, FcγRIIa (R), FcγRIIa (H), and FcγRIIIa, respectively.
Analysis of interaction between objective antibody and the FcγR was carried out using Biacore T100 (GE Healthcare). HBS-EP+ (GE Healthcare) was used as the running buffer, and the measurement temperature was set to 25° C. Chips produced by immobilizing the antigen peptide by the amine coupling method to a Series S Sencor Chip CM5 (GE Healthcare), or alternatively, chips produced by allowing preliminarily biotinylated antigen peptides to interact with and immobilize onto a Series S Sensor Chip SA (certified) (GE Healthcare) were used. Antibodies of interest were captured onto an antigen peptide-immobilized chip, and allowed to interact to each FcγR diluted with running buffer. To regenerate and repeatedly use the chip, the antibodies captured on the chip were washed off by reacting 10 mM glycine-HCl, pH 1.5.
T3 sequence (P12314 16-292): as above

The target of test [5] is T3, FcγRIa extracellular domain with …. As to the kind of experiment: SPR, binding relative to GpH7-A5/GpH7-B3/GpL16-k0 = 100.
For test [6], the target named is T4, FcγRIIb extracellular domain with C-terminal His tag (human, UniProt P31994 43-217).
T4 construct: extracellular domain; soluble analyte in Biacore; also called FcgRIIb; not shown: His tag at the C terminus
T4 sequence (looked up): T1 sequence (looked up)
Described as above.

B1: GpH7-A5/GpH7-B3 variant D265_15Y/GpL16-k0 (antibody, human IgG1, kappa)
heavy 1: not shown
heavy 2: not shown
light: DIVMTQSPLSLPVTPGEPASISCQASESLVHSNRNTYLHWYLQKPGQSPQLLIYKVSNRFSGVPDRFSGSGSGTDFTLKISRVEAEDVGVYYCSQNTHVPPTFGQGTKVEIERTVAAPSVFIFPPSDEQLKSGTASVVCLLNNFYPREAKVQWKVDNALQSGNSQESVTEQDSKDSTYSLSSTLTLSKADYEKHKVYACEVTHQGLSSPVTKSFNRGEC
notes: He Ab; IgG1, mutation in one H chain
For B1, the He/Con_2b in test [1] is 0.6 % of HeCon Ab (GpH7-A5/GpH7-B3/GpL16-k0 = 100). Besides, in test [2], the He/Con_1a is 44.3 % of HeCon Ab (GpH7-A5/GpH7-B3/GpL16-k0 = 100). Further, the “He_1a/2b (Ia/IIb)” value in test [3] was 73.5 ratio.

B2: GpH7-A5/GpH7-B3 variant D270_01G/GpL16-k0 (antibody, human IgG1, kappa)
heavy 1: not shown
heavy 2: not shown
light: B1 light
notes: change in the GpH7-B3 H chain only; also called He Ab
B2: the “He_1a/2b (Ia/IIb)” value in test [4] was found to be 2.5 ratio. Also, in test [5], the He/Con_1a is 76.3 % of control. The He/Con_2b in test [6] is 30.5 % of control.

B3: GpH7-A5/GpH7-B3 variant D270_05P/GpL16-k0 (antibody, human IgG1, kappa)
heavy 1: not shown
heavy 2: not shown
light: B1 light
notes: as for B2
With B3, the “He_1a/2b (Ia/IIb)” value in test [4] came to 4.81 ratio. Moreover, the He/Con_1a in test [5] is 67.1 % of control. Also, the He/Con_2b in test [6] is 13.9 % of control.

B4: GpH7-A5/GpH7-B3 variant D270_06M/GpL16-k0 (antibody, human IgG1, kappa)
heavy 1: not shown
heavy 2: not shown
light: B1 light
notes: as for B2
For B4, the “He_1a/2b (Ia/IIb)” value in test [4] came out at 1.64 ratio. For the same molecule, the He/Con_1a in test [5] was 78.8 % of control. Also, the He/Con_2b in test [6] is 48.2 % of control.

B5: GpH7-A5/GpH7-B3 variant D270_08L/GpL16-k0 (antibody, human IgG1, kappa)
heavy 1: not shown
heavy 2: not shown
light: B1 light
notes: as for B2
For the molecule B5, in test [4], the “He_1a/2b (Ia/IIb)” value stood at 1.37 ratio. In addition, the He/Con_1a in test [5] was 73.5 % of control. The He/Con_2b in test [6] was 53.6 % of control.

B6: GpH7-A5/GpH7-B3 variant D270_04F/GpL16-k0 (antibody, human IgG1, kappa)
heavy 1: not shown
heavy 2: not shown
light: B1 light
notes: as for B2
As to B6, the “He_1a/2b (Ia/IIb)” value in test [4] is 1.47 ratio. The He/Con_1a in test [5] is 78.1 % of control. The He/Con_2b in test [6] was 53.1 % of control.

B7: GpH7-A5/GpH7-B3 variant D270_19Q/GpL16-k0 (antibody, human IgG1, kappa)
heavy 1: not shown
heavy 2: not shown
light: B1 light
notes: as for B2
B7: in test [4], the “He_1a/2b (Ia/IIb)” value was determined as 1.63 ratio. Besides, the He/Con_1a in test [5] was 78.2 % of control. The He/Con_2b in test [6] is 48 % of control.

B8: GpH7-A5/GpH7-B3 variant E269_19Q/GpL16-k0 (antibody, human IgG1, kappa)
heavy 1: not shown
heavy 2: not shown
light: B1 light
notes: as for B2
Consider B8, for which, in test [4], the “He_1a/2b (Ia/IIb)” value amounted to 2.37 ratio. The He/Con_1a in test [5] was 105 % of control. Besides, in test [6], the He/Con_2b was 44.3 % of control.

B9: GpH7-A5/GpH7-B3 variant D265_20W/GpL16-k0 (antibody, human IgG1, kappa)
heavy 1: not shown
heavy 2: not shown
light: B1 light
notes: as for B1
Consider B9, for which the He/Con_2b in test [1] was 1.1 % of HeCon Ab (GpH7-A5/GpH7-B3/GpL16-k0 = 100). Besides, in test [2], the He/Con_1a is 51.5 % of HeCon Ab (GpH7-A5/GpH7-B3/GpL16-k0 = 100). Also, the “He_1a/2b (Ia/IIb)” value in test [3] turned out to be 45.6 ratio.

B10: GpH7-A5/GpH7-B3 variant D265_16H/GpL16-k0 (antibody, human IgG1, kappa)
heavy 1: not shown
heavy 2: not shown
light: B1 light
notes: as for B1
For B10, the He/Con_2b in test [1] is 38.3 % of HeCon Ab (GpH7-A5/GpH7-B3/GpL16-k0 = 100). Besides, the He/Con_1a in test [2] was 85.4 % of HeCon Ab (GpH7-A5/GpH7-B3/GpL16-k0 = 100). Moreover, in test [3], the “He_1a/2b (Ia/IIb)” value is 2.23 ratio.

B11: GpH7-A5/GpH7-B3 variant V266_05P/GpL16-k0 (antibody, human IgG1, kappa)
heavy 1: not shown
heavy 2: not shown
light: B1 light
notes: as for B1
For the molecule B11, the He/Con_2b in test [1] was 0.4 % of HeCon Ab (GpH7-A5/GpH7-B3/GpL16-k0 = 100). Also, the He/Con_1a in test [2] was 71.9 % of HeCon Ab (GpH7-A5/GpH7-B3/GpL16-k0 = 100). Also, in test [3], the “He_1a/2b (Ia/IIb)” value is 205 ratio.

B12: GpH7-A5/GpH7-B3 variant D270_16H/GpL16-k0 (antibody, human IgG1, kappa)
heavy 1: not shown
heavy 2: not shown
light: B1 light
notes: as for B2
For the molecule B12, the “He_1a/2b (Ia/IIb)” value in test [4] is 1.4 ratio. Besides, in test [5], the He/Con_1a is 66 % of control. Further, the He/Con_2b in test [6] was 47.2 % of control.

B13: GpH7-A5/GpH7-B3 variant D270_15Y/GpL16-k0 (antibody, human IgG1, kappa)
heavy 1: not shown
heavy 2: not shown
light: B1 light
notes: as for B2
For B13, in test [4], the “He_1a/2b (Ia/IIb)” value is 1.53 ratio. In test [5], the He/Con_1a is 68.5 % of control. The He/Con_2b in test [6] was 44.9 % of control.

B14: GpH7-A5/GpH7-B3 variant D265_18N/GpL16-k0 (antibody, human IgG1, kappa)
heavy 1: not shown
heavy 2: not shown
light: B1 light
notes: as for B1
B14: the He/Con_2b in test [1] was 6.1 % of HeCon Ab (GpH7-A5/GpH7-B3/GpL16-k0 = 100). In addition, in test [2], the He/Con_1a is 27.7 % of HeCon Ab (GpH7-A5/GpH7-B3/GpL16-k0 = 100). The “He_1a/2b (Ia/IIb)” value in test [3] was determined as 4.52 ratio.

B15: GpH7-A5/GpH7-B3 variant D270_02A/GpL16-k0 (antibody, human IgG1, kappa)
heavy 1: not shown
heavy 2: not shown
light: B1 light
notes: as for B2
Take B15: the “He_1a/2b (Ia/IIb)” value in test [4] turned out to be 1.48 ratio. For the same molecule, the He/Con_1a in test [5] is 71.5 % of control. For the same molecule, the He/Con_2b in test [6] is 48.3 % of control.
